Patent US20140072980A1 (Regeneron, published 2014)

How the values were obtained:
[1] = molecular target: T1, human Fc homodimer (human, UniProt P01861 120-325 = IgG part); assay: SPR (Biacore 2000), antibody captured on anti-mouse-Fc surface, Fc dimer injected
T1 construct: His 95 and Tyr 96 (IMGT) in CH3; also called Fc/Fc; hFc
Protocol: (§1) Measurements to determine binding affinities and kinetic constants were made on a Biacore 2000 instrument. Antibodies (each of Ab1-Ab8) were captured onto an anti-mouse-Fc sensor surface (Mab capture format), and human Fc (SEQ ID NO 26) homodimers, human Fc* homodimers (SEQ ID NO:42), or Fc/Fc* heterodimers were injected over the surface. Kinetic association (kₐ) and dissociation (kd) rate constants were determined by processing and fitting the data to a 1:1 binding model using Scrubber 2.0 curve fitting software.

[2] = molecular target: T2, human Fc* homodimer (human); assay: SPR (Biacore 2000), antibody captured on anti-mouse-Fc surface, Fc dimer injected, 1:1 fit
T2 construct: also called Fc*/Fc*; human ΔAdpFc polypeptide
Protocol: as §1

[3] = molecular target: IgG1 Fc/Fc* bispecific antibody; assay: flow cytometry sandwich: antibody displayed on CHO cells by CSCP FcγR, detected with FITC-labeled Ab6; signal needs both capture and detection
[4] = molecular target: IgG1 Fc*/Fc* monospecific antibody; assay: as above
[5] = molecular target: IgG1 Fc/Fc monospecific antibody; assay: as above
[6] = molecular target: IgG1 Fc/Fc* bispecific antibody; assay: flow cytometry sandwich: antibody displayed on CHO cells by CSCP ScFv-FcγR, hFc block, detected with FITC-labeled Ab6; signal needs both capture and detection
Protocol: (§2) The Ab2-derived anti-Fc-specific ScFv-FcγR surface capture system was tested for its ability to detect and enrich for cells that produce bispecific antibodies. To assess the ability to detect bispecific antibodies, which harbor the 95R/435R-96F/436F substitution in one of the CH3 domains (designated Fc*), various antibodies were expressed in the Ab2-derived anti-Fc-specific ScFv-FcγR surface capture cell line, using hFc as the blocking molecule, and a FITC-labeled Ab6 anti-Fc* antibody (e.g., mAb with HC of SEQ ID NO:40, and LC of SEQ ID NO:41) as the detection molecule. The Ab2-derived anti-Fc-specific ScFv-FcγR surface capture cell line was able to detect and distinguish the bispecific antibody (Fc/Fc*) over any Fc*/Fc* or Fc/Fc monospecific antibodies using the Fc*-specific Ab6 as the detection molecule (Table 4). The wildtype FcγR surface capture cell line was not able to distinguish between the Fc/Fc*, Fc*/Fc*, and Fc/Fc IgG4 species, since FcγR is unable to bind, or binds at very low affinity to IgG4.

[7] = molecular target: IgG1 Fc*/Fc* monospecific antibody; assay: as above
Protocol: as §2

[8] = molecular target: IgG1 Fc/Fc monospecific antibody; assay: as above
Protocol: as §2

[9] = molecular target: IgG4 Fc/Fc* bispecific antibody; assay: as above
Protocol: as §2

[10] = molecular target: IgG4 Fc*/Fc* monospecific antibody; assay: as above
Protocol: as §2

[11] = molecular target: IgG4 Fc/Fc monospecific antibody; assay: as above
Protocol: as §2

[12] = molecular target: IgG1 Fc/Fc* bispecific antibody; assay: flow cytometry sandwich: antibody displayed on CHO cells by CSCP FcγR, detected with labeled Ab2; signal needs both capture and detection
[13] = molecular target: IgG1 Fc/Fc monospecific antibody; assay: as above
[14] = molecular target: IgG4 Fc/Fc* bispecific antibody; assay: as above
[15] = molecular target: IgG4 Fc*/Fc* monospecific antibody; assay: as above
[16] = molecular target: IgG4 Fc/Fc monospecific antibody; assay: as above
[17] = molecular target: IgG1 Fc/Fc* bispecific antibody; assay: flow cytometry sandwich: antibody displayed on CHO cells by CSCP ScFv*-FcγR, hFc block, detected with Alexa 488-labeled Ab2; signal needs both capture and detection
Protocol: (§3) Conversely, the Ab6-derived anti-Fc*-specific ScFv*-FcγR surface capture system was tested for its ability to detect and enrich for cells that produce bispecific antibodies. […] The Ab6-derived anti-Fc*-specific ScFv*-FcγR surface capture cell line was able to detect and distinguish the bispecific antibody (Fc/Fc*) over the Fc*/Fc* or Fc/Fc monospecific antibodies using the Fc-specific Ab2 as the detection molecule (Table 4). The FcγR surface capture cell line was not able to distinguish between the Fc/Fc*, Fc*/Fc*, and Fc/Fc IgG4 species.

[18] = molecular target: IgG1 Fc*/Fc* monospecific antibody; assay: as above
Protocol: as §3

[19] = molecular target: IgG1 Fc/Fc monospecific antibody; assay: as above
Protocol: as §3

T1 sequence (P01861 other isoform, or with tags, fused parts or gaps limits assumed): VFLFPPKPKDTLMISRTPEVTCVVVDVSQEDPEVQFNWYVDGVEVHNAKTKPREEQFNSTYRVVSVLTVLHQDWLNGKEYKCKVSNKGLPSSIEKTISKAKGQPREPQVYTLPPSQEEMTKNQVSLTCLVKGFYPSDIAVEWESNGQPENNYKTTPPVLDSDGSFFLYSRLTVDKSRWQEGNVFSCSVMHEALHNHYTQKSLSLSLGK

B1: Ab6 (antibody, mouse IgG2a, kappa, V domains shown)
VH: EVQLVESGGAIVKPGGSHRVSCEASGFTFSNAWMSWVRQAPGRGLEWVGRILSKTDGGTTDYAAPVKDRFTISRDDSKNMLFLQMDSLKIEDTAVYFCTTADFWSAYSSDYWGQGTLVTVSS
VL: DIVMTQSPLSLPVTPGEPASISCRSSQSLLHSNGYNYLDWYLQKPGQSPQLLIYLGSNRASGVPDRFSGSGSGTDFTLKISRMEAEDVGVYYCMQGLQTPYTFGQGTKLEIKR
notes: also called Fc*-specific Ab6; Ab6 anti-Fc* antibody
Does B1 bind [1]?
Result: no binding

What about the Kd [2] of the same binder?
The Kd was 0.679 nM.

What about the koff [2] of the same binder?
The koff was 0.000593 s⁻¹.

What about the kon [2] of the same binder?
Its kon is 873000 M⁻¹ s⁻¹.

And the t½ [2]?
Its t½ is 19 min.

What about the “Mean Fluorescence Intensity (MFI)” value [3] of the same binder?
The value was 200 MFI.

What about the “Mean Fluorescence Intensity (MFI)” value [4] of the same binder?
Its value is 200 MFI.

And the “Mean Fluorescence Intensity (MFI)” value [5]?
The value was 200 MFI.

What about the “Mean Fluorescence Intensity (MFI)” value [6] of the same binder?
Its value is 500 MFI.

And the “Mean Fluorescence Intensity (MFI)” value [7]?
Its value is 15 MFI.

What about the “Mean Fluorescence Intensity (MFI)” value [8] of the same binder?
Its value is 15 MFI.

And the “Mean Fluorescence Intensity (MFI)” value [9]?
The value was 500 MFI.

What about the “Mean Fluorescence Intensity (MFI)” value [10] of the same binder?
Its value is 15 MFI.

And the “Mean Fluorescence Intensity (MFI)” value [11]?
Its value is 15 MFI.

B2: Ab2 (antibody, V domains shown)
VH: QLQQSGAELAKPGASVKMSCKASGYTFTNYWIHWEKQRPEQGLEWIGYINPNTGHTEYNQKFKDKATLTADRSSSTAYMQLSSLTSEDSAVYFCARTYSGSSHFDYWGQGTTL
VL: DIVMTQTPVSLPVSLGDQASISCRSSQSLVHNNGDTFLHWYLQKPGQSPKLLIYKVSNRFSGVPDRFSGSGSGTDFTLKISRVEAEDLGVYFCSQTTLIPRTFGGGTKLEI
notes: From Velocimmune mice, captured by anti-mouse-Fc in SPR; also called Fc-specific Ab2; Ab2 anti-Fc antibody
What does the source list for B2?
Mean Fluorescence Intensity (MFI) [12]: 500 MFI; Mean Fluorescence Intensity (MFI) [13]: 350 MFI; Mean Fluorescence Intensity (MFI) [14]: 200 MFI; Mean Fluorescence Intensity (MFI) [15]: 200 MFI; Mean Fluorescence Intensity (MFI) [16]: 200 MFI; Mean Fluorescence Intensity (MFI) [17]: 150 MFI; Mean Fluorescence Intensity (MFI) [18]: 10 MFI; Mean Fluorescence Intensity (MFI) [19]: 10 MFI
